Assays:
[1] = target: T1, N-terminally MYC-tagged FTH1-R23A (human, UniProt P02794 1-183, R23A); assay: co-IP; HEK293T-FTH1 KO cells, transient expression; anti-MYC agarose IP of MYC-FTH1, immunoblot; 50 mM Tris-HCl pH 7.5, 150 mM NaCl, 0.5% Nonidet P40, 1 mM DTT; quantified relative to FTH1-WT, normalized to immunoprecipitated FTH1; conditions: partners not purified
T1 construct: ferritin heavy chain (FTH1), NM_002032.3, mutant synthesized by Twist Bioscience in pTwist EF1 Alpha; source: HEK293T-FTH1 KO, transiently transfected, in lysate; not shown: MYC, N-terminal, kept
T1 sequence (P02794 whole entry R23A): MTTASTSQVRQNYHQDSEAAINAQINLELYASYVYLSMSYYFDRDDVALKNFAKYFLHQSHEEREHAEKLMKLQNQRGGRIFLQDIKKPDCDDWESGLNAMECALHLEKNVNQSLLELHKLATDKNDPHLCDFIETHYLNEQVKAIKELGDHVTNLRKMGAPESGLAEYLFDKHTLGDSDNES

[2] = target: T2, N-terminally MYC-tagged FTH1-A19Y (human, UniProt P02794 1-183, A19Y); assay: as above; conditions: partners not purified
T2 construct: ferritin heavy chain (FTH1), NM_002032.3, mutant synthesized by Twist Bioscience in pTwist EF1 Alpha; source: HEK293T-FTH1 KO, transiently transfected, in lysate; not shown: MYC, N-terminal, kept
T2 sequence (P02794 whole entry A19Y): as the sequence (P02794 whole entry R23A) above, with A19Y, A23R counted along it

[3] = target: T3, N-terminally MYC-tagged FTH1-N22A (human, UniProt P02794 1-183, N22A); assay: as above; conditions: partners not purified
T3 construct: ferritin heavy chain (FTH1), NM_002032.3, mutant synthesized by Twist Bioscience in pTwist EF1 Alpha; source: HEK293T-FTH1 KO, transiently transfected, in lysate; not shown: MYC, N-terminal, kept
T3 sequence (P02794 whole entry N22A): as the sequence (P02794 whole entry R23A) above, with N22A, A23R counted along it

[4] = target: T4, N-terminally MYC-tagged FTH1-S114E (human, UniProt P02794 1-183, S114E); assay: as above; conditions: partners not purified
T4 construct: ferritin heavy chain (FTH1), NM_002032.3, phosphomimetic mutant synthesized by Twist Bioscience in pTwist EF1 Alpha; source: HEK293T-FTH1 KO, transiently transfected, in lysate; not shown: MYC, N-terminal, kept
T4 sequence (P02794 whole entry S114E): as the sequence (P02794 whole entry R23A) above, with A23R, S114E counted along it

[5] = target: T5, N-terminally MYC-tagged FTH1-R23L (human, UniProt P02794 1-183, R23L); assay: as above; conditions: partners not purified
T5 construct: ferritin heavy chain (FTH1), NM_002032.3, mutant synthesized by Twist Bioscience in pTwist EF1 Alpha; source: HEK293T-FTH1 KO, transiently transfected, in lysate; not shown: MYC, N-terminal, kept
T5 sequence (P02794 whole entry R23L): as the sequence (P02794 whole entry R23A) above, with A23L counted along it

[6] = target: T6, N-terminally MYC-tagged FTH1-R23I (human, UniProt P02794 1-183, R23I); assay: as above; conditions: partners not purified
T6 construct: ferritin heavy chain (FTH1), NM_002032.3, mutant synthesized by Twist Bioscience in pTwist EF1 Alpha; source: HEK293T-FTH1 KO, transiently transfected, in lysate; not shown: MYC, N-terminal, kept
T6 sequence (P02794 whole entry R23I): as the sequence (P02794 whole entry R23A) above, with A23I counted along it

[7] = target: T7, N-terminally MYC-tagged FTH1-S114D (human, UniProt P02794 1-183, S114D); assay: as above; conditions: partners not purified
T7 construct: ferritin heavy chain (FTH1), NM_002032.3, phosphomimetic mutant synthesized by Twist Bioscience in pTwist EF1 Alpha; source: HEK293T-FTH1 KO, transiently transfected, in lysate; not shown: MYC, N-terminal, kept
T7 sequence (P02794 whole entry S114D): as the sequence (P02794 whole entry R23A) above, with A23R, S114D counted along it

[8] = target: T8, FTL S19R, Q26Y, A86D, K106N (L2H mutant, recombinant) (UniProt P02792 1-175, S19R | Q26Y | A86D | K106N); assay: ITC; 16 injections of 3 uL NCOA4 into the cell containing ferritin; 25.00 C; 100 mM MOPS, 100 mM NaCl, pH 7.4; one class of independent binding sites; conditions: both partners purified
T8 construct: ferritin light chain (FTL) with four residues of FTH1 brought into the cleft; mutant ordered from Twist Bioscience in pET-29b(+); also called FTL mutant L2H; source: E. coli BL21 (DE3), purified (heat treatment, HiTrap Q HP, ammonium sulfate)
T8 sequence (P02792 whole entry S19R/Q26Y/A86D/K106N): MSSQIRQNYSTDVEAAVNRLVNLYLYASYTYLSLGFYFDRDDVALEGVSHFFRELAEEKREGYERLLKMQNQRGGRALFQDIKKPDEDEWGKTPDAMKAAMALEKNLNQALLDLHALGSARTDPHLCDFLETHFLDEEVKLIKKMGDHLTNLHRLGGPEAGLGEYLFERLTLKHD

[9] = target: T9, FTH1-S114D (recombinant) (human, UniProt P02794 1-183, S114D); assay: as above; conditions: both partners purified
T9 construct: ferritin heavy chain (FTH1), human, phosphomimetic mutant ordered from Twist Bioscience in pET-29b(+); source: E. coli BL21 (DE3), purified (heat treatment, HiTrap Q HP, ammonium sulfate)
T9 sequence (P02794 whole entry S114D): as the sequence (P02794 whole entry R23A) above, with A23R, S114D counted along it

[10] = target: T10, human FTH1 wild type (recombinant ferritin nanocage) (human, UniProt P02794 1-183); assay: as above; conditions: both partners purified
T10 construct: ferritin heavy chain (FTH1), human; plasmid from Addgene #122652; Homopolymer cage; also called FTH1-WT; WT-FTH1; source: E. coli BL21 (DE3), purified (heat treatment, HiTrap Q HP, ammonium sulfate); copies: 24
T10 sequence (P02794 whole entry): as the sequence (P02794 whole entry R23A) above, with A23R counted along it

B1: C-terminally HA-FLAG-tagged NCOA4 (natural protein, UniProt Q13772 1-614, looked up)
chain: MNTFQDQSGSSSNREPLLRCSDARRDLELAIGGVLRAEQQIKDNLREVKAQIHSCISRHLECLRSREVWLYEQVDLIYQLKEETLQQQAQQLYSLLGQFNCLTHQLECTQNKDLANQVSVCLERLGSLTLKPEDSTVLLFEADTITLRQTITTFGSLKTIQIPEHLMAHASSANIGPFLEKRGCISMPEQKSASGIVAVPFSEWLLGSKPASGYQAPYIPSTDPQDWLTQKQTLENSQTSSRACNFFNNVGGNLKGLENWLLKSEKSSYQKCNSHSTTSSFSIEMEKVGDQELPDQDEMDLSDWLVTPQESHKLRKPENGSRETSEKFKLLFQSYNVNDWLVKTDSCTNCQGNQPKGVEIENLGNLKCLNDHLEAKKPLSTPSMVTEDWLVQNHQDPCKVEEVCRANEPCTSFAECVCDENCEKEALYKWLLKKEGKDKNGMPVEPKPEPEKHKDSLNMWLCPRKEVIEQTKAPKAMTPSRIADSFQVIKNSPLSEWLIRPPYKEGSPKEVPGTEDRAGKQKFKSPMNTSWCSFNTADWVLPGKKMGNLSQLSSGEDKWLLRKKAQEVLLNSPLQEEHNFPPDHYGLPAVCDLFACMQLKVDKEKWLYRTPLQM
notes: the discussion calls the NCOA4 of the cellular studies full-length; also called full-length NCOA4; source: HEK293T-FTH1 KO, transiently transfected, in lysate; HeLa-FTH1 KO, in lysate; not shown: HA, C-terminal, kept; FLAG, C-terminal, kept
- relative interaction by immunoprecipitation (% of FTH1-WT) [1]: 5.35%
- relative interaction by immunoprecipitation (% of FTH1-WT) [2]: 8.86%
- relative interaction by immunoprecipitation (% of FTH1-WT) [3]: 3.72%
- relative interaction by immunoprecipitation (% of FTH1-WT) [4]: 113%
- relative interaction by immunoprecipitation (% of FTH1-WT) [5]: 86%
- relative interaction by immunoprecipitation (% of FTH1-WT) [6]: 13%
- relative interaction by immunoprecipitation (% of FTH1-WT) [7]: 111%

B2: NCOA4 ferritin-binding fragment (amino acids 383-522), His-tagged (domain or fragment, UniProt Q13772 383-522, looked up)
chain: SMVTEDWLVQNHQDPCKVEEVCRANEPCTSFAECVCDENCEKEALYKWLLKKEGKDKNGMPVEPKPEPEKHKDSLNMWLCPRKEVIEQTKAPKAMTPSRIADSFQVIKNSPLSEWLIRPPYKEGSPKEVPGTEDRAGKQK
notes: No tag cleavage is described; also called NCOA4^FB; NCOA4-383-522; source: E. coli T7 Lys, purified (HisTrap, PD10 desalting)
- Kd [8]: 5.6 µM
- dH [8]: -5.26 kcal/mol
- stoichiometry N [8]: 1.9
- Kd [9]: 3.5 µM
- dH [9]: -4.66 kcal/mol
- stoichiometry N [9]: 3
- Kd [10]: 2.4 µM
- dH [10]: -5.5 kcal/mol
- stoichiometry N [10]: 2.5
